Assay results taken from patent US20250066455A1 (published 2025).

B1: PDI 42 (antibody, V domains shown)
VH: EVQLVESGGGLVQPGGSLRLSCAASGLTVSSNYMSWVRQAPGKGLEWVSVFYPGGSTYNADSVKGRFTISRDNSKNTLYLQMNSLRAEDTAVYYCARDAVYYGMDVWGQGTTVTVSS
VL: not shown
B2: REGN10987 (antibody, V domains shown)
VH: QVQLVESGGGVVQPGRSLRLSCAASGFTFSNYAMYWVRQAPGKGLEWVAVISYDGSNKYYADSVKGRFTISRDNSKNTLYLQMNSLRTEDTAVYYCASGSDYGDYLLVYWGQGTLVTVSS
VL: QSALTQPASVSGSPGQSITISCTGTSSDVGGYNYVSWYQQHPGKAPKLMIYDVSKRPSGVSNRFSGSKSGNTASLTISGLQSEDEADYYCNSLTSISTWVFGGGTKLTVLR
B3: PDI 231 (antibody, V domains shown)
VH: EVQLVESGGGLIQPGGSLRLSCVASGLTVSSNYMNWVRQTPGKGLEWVSVIYSGGSTFYADSVKGRFTISRDNSKNTLFLQMNSLRAEDTAVYYCARVGGYCSSANCVSDVWGKGTTVTVSS
VL: DIQMTQSPSSLSASVGDRVTITCQASQDIRNYLNWYQQKPGKAPKIMIYDASILETGVPSRFSGSGSGTDFTFTISSLQPEDIATYYCQQYDNLPITFGQGTQLEIK
B4: PDI 96 (antibody, V domains shown)
VH: LVQLVQSGAEVKKPGASVKISCKASGYTFTSYYMHWVRQAPGQGLEWMGIINPSGGGTSYAQKFQGRVTMTRDTSTSTVYMELTSLRSDDTAVYYCAKDRVTIFWGNGMDVWGQGTTVTVSS
VL: not shown
B5: REGN10933 (antibody, V domains shown)
VH: QVQLVESGGGLVKPGGSLRLSCAASGFTFSDYYMSWIRQAPGKGLEWVSYITYSGSTIYYADSVKGRFTISRDNAKSSLYLQMNSLRAEDTAVYYCARDRGTTMVPFDYWGQGTLVTVSS
VL: DIQMTQSPSSLSASVGDRVTITCQASQDITNYLNWYQQKPGKAPKLLIYAASNLETGVPSRFSGSGSGTDFTFTISGLQPEDIATYYCQQYDNLPLTFGGGTKVEIKR

How the values were obtained:
[1] = biological target: T1, SARS-CoV-2 spike receptor-binding domain (RBD) (SARS-CoV-2, UniProt P0DTC2 319-541); assay: ELISA
[2] = biological target: T1, SARS-CoV-2 spike receptor-binding …; assay: BLI
SARS-CoV-2 WT RBD = SARS-CoV-2 WT RBD (SARS-CoV-2, UniProt P0DTC2 319-541); assay: BLI
RBD = RBD (SARS-CoV-2, UniProt P0DTC2 319-541); assay: ELISA

Binder	IC50 [1] [µg/mL]	Kd [2] [nM]	Kd (SARS-CoV-2 WT RBD) [nM]	IC50 (RBD) [µg/mL]
B1	0.31	1.1	–	–
B2	–	–	17.6	0.298
B3	0.328	0.38	–	–
B4	0.346	2.6	–	–
B5	–	–	3.5	0.293
